Measured values from paper PMC4807222.
pKd: −log10 of the molar value.

Experiments:
[1] = target: c-Myc_(1–88) c-Myc-20-PYFY/AAAA-23 mutant (human) (UniProt P01106); experiment: SPR
[2] = target: V5-Myc, murine c-Myc mutant 20-PAAI (murine) (UniProt P01108); experiment: co-IP
[3] = target: V5-Myc, murine c-Myc mutant 20-PAAA (murine) (UniProt P01108); experiment: co-IP
[4] = target: V5-Myc, murine c-Myc mutant 20-AAAI (murine) (UniProt P01108); experiment: co-IP
V5-Myc, murine c-Myc mutant 20-AAAI (murine), sequence (P01108 whole entry, change not shown): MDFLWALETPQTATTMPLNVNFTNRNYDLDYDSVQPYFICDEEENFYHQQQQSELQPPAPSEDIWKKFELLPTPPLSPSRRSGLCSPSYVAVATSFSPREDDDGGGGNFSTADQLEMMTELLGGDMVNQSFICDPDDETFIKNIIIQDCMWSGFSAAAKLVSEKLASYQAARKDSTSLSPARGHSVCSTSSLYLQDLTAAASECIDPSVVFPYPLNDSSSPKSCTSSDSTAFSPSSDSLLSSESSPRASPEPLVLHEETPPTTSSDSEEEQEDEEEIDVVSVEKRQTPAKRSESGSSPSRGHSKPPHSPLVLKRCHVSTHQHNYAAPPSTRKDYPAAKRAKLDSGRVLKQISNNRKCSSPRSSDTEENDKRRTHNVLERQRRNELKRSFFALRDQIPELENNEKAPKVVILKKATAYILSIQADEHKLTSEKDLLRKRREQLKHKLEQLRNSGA

Flag-tagged Pin1 (co-immunoprecipitation), sequence (Q13526 whole entry): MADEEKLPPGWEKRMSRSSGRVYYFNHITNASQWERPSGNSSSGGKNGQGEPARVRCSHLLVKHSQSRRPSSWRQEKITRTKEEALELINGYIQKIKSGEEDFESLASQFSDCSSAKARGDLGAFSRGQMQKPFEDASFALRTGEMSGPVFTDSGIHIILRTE
full-length Pin1 (1–163), sequence (Q13526 whole entry): as above
V5-Myc, murine c-Myc mutant 20-PAAI (murine), sequence (P01108 whole entry, change not shown): as the sequence (P01108 whole entry, change not shown) above
V5-Myc, murine c-Myc mutant 20-PAAA (murine), sequence (P01108 whole entry, change not shown): as above

pKd [1]	percent reduction of co-immunoprecipitated Pin1 against wild type [2]	percent reduction of co-immunoprecipitated Pin1 against wild type [3]	percent reduction of co-immunoprecipitated Pin1 against wild type [4]	Substance
4.82	–	–	–	full-length Pin1 (1–163) (from UniProt Q13526 1-163) (enzyme)
–	> 50%	> 50%	> 50%	Flag-tagged Pin1 (co-immunoprecipitation) (from UniProt Q13526 1-163) (enzyme)
